Molecular target: His-LC3A (human, UniProt Q9H492 1-121)
Assay: ITC

Binder: GSGTWTLVDEG [hEPG5-LIR1 peptide]
- Kd: 20.4 µM

— article PMC7935953 (2021)
